We go through two molecules from PMC4497409, “Structure and functional properties of Norrin mimic Wnt for signalling with Frizzled4, Lrp5/6, and proteoglycan” (eLife, 2015).

Values joined by “and” are separate entries in the source; they are usually repeats but may differ in a detail not shown here. Equal entries are not always repeated.

To fix the notation:
T1: Frizzled5 cysteine-rich domain, mouse (mouse, UniProt Q9EQD0 31-176)
T1 sequence (looked up): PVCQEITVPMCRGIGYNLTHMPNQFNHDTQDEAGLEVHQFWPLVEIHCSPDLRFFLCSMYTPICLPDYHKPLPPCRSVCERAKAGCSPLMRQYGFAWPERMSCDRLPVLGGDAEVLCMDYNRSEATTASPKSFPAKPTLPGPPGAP

T2: Frizzled8 cysteine-rich domain, mouse (mouse, UniProt Q61091 30-170)
T2 sequence (looked up): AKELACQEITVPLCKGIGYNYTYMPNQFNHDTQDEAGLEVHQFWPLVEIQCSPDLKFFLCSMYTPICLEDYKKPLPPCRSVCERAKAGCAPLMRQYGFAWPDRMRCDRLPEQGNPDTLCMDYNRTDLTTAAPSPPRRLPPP

T3: Lrp6 ectodomain fragment comprising the first two tandem beta-propeller-epidermal growth factor-like domain … (human, UniProt O75581 20-631)
T3 construct: signal peptide in the construct; low-density lipoprotein receptor related protein 6, human, residues 1-631 (P1E1P2E2)
T3 sequence (looked up): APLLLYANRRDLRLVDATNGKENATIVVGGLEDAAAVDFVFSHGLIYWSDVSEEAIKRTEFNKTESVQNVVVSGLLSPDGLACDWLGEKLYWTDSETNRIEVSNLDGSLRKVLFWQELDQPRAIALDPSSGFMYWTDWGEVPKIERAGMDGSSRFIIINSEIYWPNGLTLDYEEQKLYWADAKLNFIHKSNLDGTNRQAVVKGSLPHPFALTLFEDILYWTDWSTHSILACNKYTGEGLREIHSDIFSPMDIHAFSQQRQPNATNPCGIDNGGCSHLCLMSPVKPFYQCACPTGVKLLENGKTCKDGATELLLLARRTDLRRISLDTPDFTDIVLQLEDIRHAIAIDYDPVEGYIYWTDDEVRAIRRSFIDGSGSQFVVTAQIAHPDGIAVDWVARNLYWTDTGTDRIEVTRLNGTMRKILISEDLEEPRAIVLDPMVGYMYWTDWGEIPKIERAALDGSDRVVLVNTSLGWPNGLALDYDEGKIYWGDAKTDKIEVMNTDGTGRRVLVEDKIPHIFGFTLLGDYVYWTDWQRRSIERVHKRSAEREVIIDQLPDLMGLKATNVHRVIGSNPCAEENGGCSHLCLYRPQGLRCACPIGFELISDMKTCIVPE

B1: Frizzled4 cysteine-rich domain (Fz4CRD), human (domain or fragment, UniProt Q9ULV1 42-179, looked up)
chain: ERRCDPIRISMCQNLGYNVTKMPNLVGHELQTDAELQLTTFTPLIQYGCSSQLQFFLCSVYVPMCTEKINIPIGPCGGMCLSVKRRCEPVLKEFGFAWPESLNCSKFPPQNDHNHMCMEGPGDEEVPLPHKTPIQPGE
modifications: N-linked glycans at Asn59 and Asn144 (full, or cut to N-acetylglucosamine by Endo-F1)
notes: Frizzled4 cysteine-rich domain, human, residues 42-179; Glycosylated and deglycosylated samples of the same construct are kept as one molecule; the assay's format tells which was used; also called human Fz4CRD; source: HEK293T, secreted, purified (IMAC, HRV-3C cleavage, IMAC, SEC); with kifunensine and Endo-F1 treatment for crystallisation and the deglycosylated samples; fully glycosylated for …
B2: Biotinylated human Norrin wild-type (pHL-Avitag3 construct) (ligand, UniProt Q00604 25-133, looked up)
chain: KTDSSFIMDSDPRRCMRHHYVDSISHPLYKCSSKMVLLARCEGHCSQASRSEPLVSFSTVLKQPFRSSCHCCRPQTSKLKALRLRCSGGMRLTATYRYILSCHCEECNS
modifications: biotin on the C-terminal BirA recognition sequence (in vivo biotinylation)
notes: Norrin (Norrie Disease Protein), human, UniProtKB/Swiss-Prot Q00604; The same plasmids were used in the luciferase reporter assays; also called Norrin WT; source: HEK293T, co-transfected with BirA-ER for in vivo biotinylation, secreted

The target in experiment [1] is T4, Norrin (Norrie Disease Protein), recombinant wild-type after removal of the SUMO fusion tag (human, UniProt Q00604 25-133).
T4 construct: Norrin (Norrie Disease Protein), human, UniProtKB/Swiss-Prot Q00604, residues 25-133; Disulphide-linked homodimer (Cys93-Cys95, Cys95-Cys93, Cys131-Cys131); also called untagged Norrin; Norrin wild-type; source: for the complex co-expressed with Fz4CRD in HEK293T with kifunensine and valproic acid, purified (IMAC, SEC); not shown: Strep-II, N-terminal, cleaved; His8, N-terminal, cleaved; SUMO (S. …)
Put plainly: SAXS; deglycosylated Norrin-Fz4CRD complex at 1.02 and 2.14 mg/ml in 10 mM HEPES, 0.5 M NaCl, without SOS; 293 K. As to conditions: both partners purified.

Experiment [2] has as its target T5, Norrin R107E/R109E/R115L (in the Norrin R107E/R109E/R115L-Fz4CRD complex) (human, UniProt Q00604 25-133, R107E | R109E | R115L).
T5 construct: Norrin, human, UniProtKB/Swiss-Prot Q00604, residues 25-133; source: HEK293T, complex with Fz4CRD, purified (SEC)
In words: SEC-MALS; Norrin-Fz4CRD complex at 25 uM (glycosylated and deglycosylated), without SOS, on Superdex S200 10/300 GL in 10 mM HEPES, pH 7.5, 0.15 mM NaCl (so in the source). The following applies: both partners purified. In general terms: SEC sorts molecules by how far they enter the pores of the column.

In experiment [3] the target is T1, Frizzled5 cysteine-rich domain, mouse. In words: SPR; Biacore T200, 25 C, 10 mM HEPES, pH 7.5, 0.15 M NaCl, 0.005% Tween20; biotinylated Norrin variants captured on streptavidin coupled to a CM5 chip; glycosylated FzCRD proteins or Lrp6 P1E1P2E2 as analytes; equilibrium binding, 1:1 Langmuir model; whether the biotinylated Norrin was purified before capture is not told.

Experiment [4] deals with B1. The experiment is described as above.
In experiment [5] the target is T2, Frizzled8 cysteine-rich domain, mouse. Described as above.
Experiment [6] has as its target T3, Lrp6 ectodomain fragment comprising the …. The description is as above.

With B1, the “stoichiometry N” value in experiment [1] and in experiment [2] was 2 Fz4CRD per Norrin dimer (printed 2:2) each time.
B2: the Kd in experiment [3] was 42 µM; in experiment [4], 1100 nM and 1000 nM; in experiment [5], 64 µM; in experiment [6] it was 2870 nM.

For orientation: stoichiometry N means the number of molecules, sites or subunits per partner or assembly. What is called Kd is the free concentration of one partner at which half of the binding sites on the other are occupied at equilibrium, for simple one-to-one binding. Low readings indicate tighter binding, high ones weaker binding.
